Measured values as given in US20250235545A1, “POLYPEPTIDE CONJUGATE AND USE THEREOF” (SHANGHAI CHIXI BIOMEDICAL TECHNOLOGY CO., LTD, priority 2024, published 2025).
In brackets after ≈: the same amount, converted by molar mass. Like-named read-outs stand apart in the source and are kept apart here. Where a SMILES comes first, the peptide text is derived from it. The star is where a group is joined. NEt(2-(20S-CPT-7-yl)ethyl) = CCN(CCc1c2c(nc3ccccc13)-c1cc3c(c(=O)n1C2)COC(=O)[C@]3(O)CC)*; Belotecan = CC[C@@]1(O)C(=O)OCc2c1cc1n(c2=O)Cc2c-1nc1ccccc1c2CCN(C(C)C)*; X8 = CC[C@@]1(O)C(=O)OCc2c1cc1n(c2=O)Cc2c-1nc1ccccc1c2CCN(C1CCCC1)*; X1 = CC[C@@]1(O)C(=O)OCc2c1cc1n(c2=O)Cc2c-1nc1ccccc1c2CCN(C1CCC1)*; X7 = CC[C@@]1(O)C(=O)OCc2c1cc1n(c2=O)Cc2c-1nc1ccccc1c2CCN(C)*; Propanoyl(3-maleimido) = O=C1C=CC(=O)N1CCC(=O)*; PEG6 = NCCOCCOCCOCCOCCOCCOCCC(=O)O

Assays:
A2780 (ovarian cancer) = assay: cells; type: cell-based; conditions: CCK8, 48 h; Table 1
Outline: (§1)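 Proliferation was assessed by seeding 5,000 cells per well onto medium already containing the test drug at various concentrations. Plates stood 48 h at 37° C, then took CCK8 staining (~2 h) before A450 measurement. Median inhibitory concentrations come from survival relative to 0.1% DMSO controls.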

[1] = tested on: A549 (non-small cell lung cancer); assay: cells; type: cell-based; conditions: CCK8, 48 h; Table 1
Outline: as §1

SJSA-1 (sarcoma tissue) = assay: cells; type: cell-based; conditions: CCK8, 48 h; Table 1
Outline: as §1

[2] = tested on: SKBR3 (breast cancer tissue); assay: cells; type: cell-based; conditions: CCK8, 48 h; Table 1
Outline: as §1

[3] = tested on: sarcoma SJSA-1 tumor model; conditions: Table 2
Outline: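 Female BALB/c nude mice (6-8 weeks) bearing subcutaneous right-chest SJSA-1 xenografts from 2×10^7 cells were randomized, three per group, once tumors reached at least 100 mm^3. Treatment given once a week for three weeks starting day 1; saline controls.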

[4] = tested on: colo320 colorectal cancer tumor model
Outline: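 Dosing was once a week for four weeks, with saline as control, in randomized groups of three mice. Groups were formed after subcutaneous colo320 xenografts (7.5×10^6 cells, right chest) grew to ≥120 mm^3 in female 6–8-week-old BALB/c nude mice.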

[5] = MTD determination in mice (Examples 27, 36, 44); type: in vivo; conditions: female, mouse, in vivo; mice, monitored for 14 d; Table 4
Description: Test animals: 6-8 weeks old mice, all female; mice were grouped randomly, with six mice in each group, administered with drugs at different concentration gradients separately and monitored for 14 d. A mouse was euthanized at a loss of 20% of its initial weight and deemed to have died of poisoning.

[6] = Tumor homogenate activation efficiency, ovarian cancer tissue (Examples 28, 37); type: in vitro ADME; conditions: pH 5.0, 37° C., 2 h; Table 5
Protocol: (§2) Buffer preparation: 50 mM PH buffer (MES), 250 mM NaCl, pH adjusted to 5.0 with 0.5 M of sodium hydroxide.
(§3) The polypeptide conjugate was prepared into a 1 mg/ml solution with pH 5.0 buffer, 100 μg of tumor tissue homogenate was added, (the tumor tissue homogenate was the homogenate of tumor tissues prepared with a Jingxin F6/10 handheld homogenizer), and the solution was placed at 37° C. for 2 h. The tumor tissue homogenate could effectively activate the polypeptide conjugate and release Belotecan, and the activation efficiencies of the drugs in tumor tissues were compared by high-performance liquid chromatography (HPLC) allowing determination of a decrease in the compounds and an increase in Belotecan:
(§4) Release percentage=peak area of Belotecan/total peak area of Belotecan and all other Belotecan-containing compounds
as §3, with “HPLC” for “high-performance liquid chromatography (HPLC)”, “Belotecan: […]” for “Belotecan:”

[7] = Tumor homogenate activation efficiency, sarcoma tissue (Examples 28, 37); type: in vitro ADME; conditions: pH 5.0, 37° C., 2 h; Table 5
Protocol: as §2, §3, §4
as §3, with “HPLC” for “high-performance liquid chromatography (HPLC)”, “Belotecan: […]” for “Belotecan:”

[8] = Tumor homogenate activation efficiency, breast cancer tissue (Examples 28, 37); type: in vitro ADME; conditions: pH 5.0, 37° C., 2 h; Table 5
Protocol: as §2, §3, §4
as §3, with “HPLC” for “high-performance liquid chromatography (HPLC)”, “Belotecan: […]” for “Belotecan:”

[9] = Tumor homogenate activation efficiency, non-small cell lung cancer tissue (Examples 28, 37); type: in vitro ADME; conditions: pH 5.0, 37° C., 2 h; Table 5
Protocol: as §2, §3, §4
as §3, with “HPLC” for “high-performance liquid chromatography (HPLC)”, “Belotecan: […]” for “Belotecan:”

[10] = Tumor homogenate activation efficiency, small cell lung cancer tissue (Example 28); type: in vitro ADME; conditions: pH 5.0, 37° C., 2 h; Table 5
Protocol: as §2, §3, §4

[11] = Homogenate activation efficiency, heart tissue (Examples 28, 37); type: in vitro ADME; conditions: pH 5.0, 37° C., 2 h; Table 5
[12] = 15 mg/kg once a week for three weeks
[13] = 45 mg/kg once a week for four weeks, Table 3
[14] = Table 13 (Example 42), dose 45 mg/kg, once a week for four weeks, BALB/c mice
[15] = 45 mg/kg once a week for three weeks
[16] = 15 mg/kg once a week for four weeks, Table 3
[17] = Table 14 (Example 43), dose 45 mg/kg, once a week for four weeks, BALB/c mice

| SMILES | IC50 A2780 (ovarian cancer) (A2780 (ovarian cancer)) [µg/mL] | IC50 A549 (non-small cell lung cancer) [1] [µg/mL] | IC50 SJSA-1 (sarcoma tissue) (SJSA-1 (sarcoma tissue)) [µg/mL] | IC50 SKBR3 (breast cancer tissue) [2] [µg/mL] | Mouse weight (%) [3, 12] | Mouse weight (%) [4, 13] | MTD at 14 d [5] [mg/kg] | Percentage of release efficiency (%) Ovarian cancer tissue (A2780) [6] [%] | Percentage of release efficiency (%) Sarcoma tissue (SJSA1) [7] [%] | Percentage of release efficiency (%) Breast cancer tissue (SKBR3) [8] [%] | Percentage of release efficiency (%) Non-small cell lung cancer tissue (A549) [9] [%] | Percentage of release efficiency (%) Small cell lung cancer tissue (NCI-H841) [10] [%] | Percentage of release efficiency (%) Heart tissue [11] [%] | colo320 (colorectal cancer cell) growth rate (%) [4, 13] [%] | colo320 (colorectal cancer cell) mean tumor volume (mm^3) [4, 13] [mm^3] | Mouse weight (%) [4, 14] | colo320 (colorectal cancer cell) growth rate (%) [4, 14] [%] | colo320 (colorectal cancer cell) mean tumor volume (mm^3) [4, 14] [mm^3] | Mouse weight (%) [3, 15] | Mouse weight (%) [4, 16] | further results |
| --- | --- | --- | --- | --- | --- | --- | --- | --- | --- | --- | --- | --- | --- | --- | --- | --- | --- | --- | --- | --- | --- |
| CC[C@@]1(O)C(=O)OCc2c1cc1n(c2=O)Cc2c-1nc1ccccc1c2CCN(C(=O)CNC(=O)[C@H](Cc1ccccc1)NC(=O)CNC(=O)CNC(=O)CCOCCOCCOCCOCCOCCOCCNC(=O)CCN1C(=O)C=CC1=O)C1CCCC1 [MI-6PEG-GGFG-D8] ({Propanoyl(3-maleimido)-PEG6}-GGFG-X8) | 3.77 (≈ 2.98 µM) | 4.93 (≈ 3.9 µM) | 2.35 (≈ 1.86 µM) | 11.26 (≈ 8.91 µM) | +19% | +17% | 250 | 76 | 72.7 | 81.2 | 77.5 | 66.7 | 3.1 | – | – | – | – | – | – | – | – |
| CC[C@@]1(O)C(=O)OCc2c1cc1n(c2=O)Cc2c-1nc1ccccc1c2CCN(C)C(=O)CNC(=O)[C@H](Cc1ccccc1)NC(=O)CNC(=O)CNC(=O)CCOCCOCCOCCOCCOCCOCCNC(=O)CCN1C(=O)C=CC1=O [MI-6PEG-GGFG-D1] ({Propanoyl(3-maleimido)-PEG6}-GGFG-X7) | 6.84 (≈ 5.65 µM) | 10.78 (≈ 8.91 µM) | 11.79 (≈ 9.74 µM) | 16.49 (≈ 13.6 µM) | – | +19% | 250 | 67.2 | 81.5 | 74.8 | 71.7 | 66.3 | 1.7 | 605.35 | 671.3 | +19% | 605.35 | 671.3 | – | – | – |
| CC[C@@]1(O)C(=O)OCc2c1cc1n(c2=O)Cc2c-1nc1ccccc1c2CCN(C(=O)CNC(=O)[C@H](Cc1ccccc1)NC(=O)CNC(=O)CNC(=O)CCOCCOCCOCCOCCOCCOCCNC(=O)CCN1C(=O)C=CC1=O)C1CCC1 [MI-6PEG-GGFG-D7] ({Propanoyl(3-maleimido)-PEG6}-GGFG-X1) | 1.68 (≈ 1.34 µM) | 1.32 (≈ 1.06 µM) | 1.28 (≈ 1.02 µM) | 2.40 (≈ 1.92 µM) | +24% | +20% | – | 73.6 | 69.7 | 72.7 | 75.2 | 76.4 | 2.9 | – | – | – | – | – | +27% | +28% | – |
| CC[C@@]1(O)C(=O)OCc2c1cc1n(c2=O)Cc2c-1nc1ccccc1c2CCN(C(=O)CNC(=O)[C@H](Cc1ccccc1)NC(=O)CNC(=O)CNC(=O)CCOCCOCCOCCOCCOCCOCCNC(=O)CCN1C(=O)C=CC1=O)C(C)C [MI-6PEG-GGFG-Belotecan] ({Propanoyl(3-maleimido)-PEG6}-GGFG-Belotecan) | 2.60 (≈ 2.1 µM) | 3.61 (≈ 2.92 µM) | 1.50 (≈ 1.21 µM) | 6.15 (≈ 4.97 µM) | +29% | +34% | 180 | 81.5 | 83.4 | 67.7 | 72.7 | 77.3 | 1.9 | 525.03 | 581.5 | +34% | 525.03 | 581.5 | +31% | +27% | SJSA-1 (sarcoma tissue) mean tumor volume (mm^3) [3, 12]: 1453.1 mm^3; SJSA-1 (sarcoma) Growth rate (%) [3, 12]: 1257.35%; SJSA-1 (sarcoma tissue) mean tumor volume (mm^3) [3, 15]: 979.5 mm^3; SJSA-1 (sarcoma) Growth rate (%) [3, 15]: 844.40%; colo320 (colorectal cancer cell) growth rate (%) [4, 16]: 1057.73%; colo320 (colorectal cancer cell) mean tumor volume (mm^3) [4, 16]: 1171.5 mm^3; Mouse weight (%) [4, 17]: +34%; colo320 (colorectal cancer cell) growth rate (%) [4, 17]: 525.03%; colo320 (colorectal cancer cell) mean tumor volume (mm^3) [4, 17]: 581.5 mm^3 |
| CC[C@@]1(O)C(=O)OCc2c1cc1n(c2=O)Cc2c-1nc1ccccc1c2CCN(C(=O)CNC(=O)[C@H](CC(N)=O)NC(=O)[C@H](C)NC(=O)[C@H](C)NC(=O)CCOCCOCCOCCOCCOCCOCCNC(=O)CCN1C(=O)C=CC1=O)C1CCCC1 [MI-6PEG-AANG-D8] ({Propanoyl(3-maleimido)-PEG6}-AANG-X8) | 1.21 (≈ 0.961 µM) | 2.51 (≈ 1.99 µM) | 0.87 (≈ 0.691 µM) | 2.55 (≈ 2.02 µM) | +35% | +21% | 400 | 70.1 | 71.1 | 70.9 | 85.1 | 80.8 | 3 | – | – | – | – | – | – | – | – |
| CCN(CCc1c2c(nc3ccccc13)-c1cc3c(c(=O)n1C2)COC(=O)[C@]3(O)CC)C(=O)CNC(=O)[C@H](CCCCN)NC(=O)[C@H](C)NC(=O)[C@H](C)NC(=O)CCOCCOCCOCCOCCOCCOCCNC(=O)CCN1C(=O)C=CC1=O [MI-6PEG-AAKG-D2] ({Propanoyl(3-maleimido)-PEG6}-AAKG-{NEt(2-(20S-CPT-7-yl)ethyl)}) | 0.80 (≈ 0.649 µM) | 1.32 (≈ 1.07 µM) | 0.49 (≈ 0.397 µM) | 2.62 (≈ 2.12 µM) | +27% | +24% | 350 | 85.8 | 76.6 | 69.5 | 69.8 | 68 | 1.5 | 470.58 | 521.2 | – | – | – | +31% | +27% | SJSA-1 (sarcoma tissue) mean tumor volume (mm^3) [3, 12]: 1215.6 mm^3; SJSA-1 (sarcoma) Growth rate (%) [3, 12]: 980.32%; SJSA-1 (sarcoma tissue) mean tumor volume (mm^3) [3, 15]: 945.6 mm^3; SJSA-1 (sarcoma) Growth rate (%) [3, 15]: 791.30%; colo320 (colorectal cancer cell) growth rate (%) [4, 16]: 943.33%; colo320 (colorectal cancer cell) mean tumor volume (mm^3) [4, 16]: 1044.8 mm^3; Mouse weight (%) [4, 17]: +24%; colo320 (colorectal cancer cell) growth rate (%) [4, 17]: 470.58%; colo320 (colorectal cancer cell) mean tumor volume (mm^3) [4, 17]: 521.2 mm^3 |
